Experimental findings from publication PMC8603391 (European biophysics journal : EBJ, 2015) are described below.

Test [1] deals with T1, Myosin 16 ankyrin domain (My16Ank), GST tag cleaved (Rattus norvegicus, UniProt Q9ERC1-1 1-402).
T1 sequence (looked up): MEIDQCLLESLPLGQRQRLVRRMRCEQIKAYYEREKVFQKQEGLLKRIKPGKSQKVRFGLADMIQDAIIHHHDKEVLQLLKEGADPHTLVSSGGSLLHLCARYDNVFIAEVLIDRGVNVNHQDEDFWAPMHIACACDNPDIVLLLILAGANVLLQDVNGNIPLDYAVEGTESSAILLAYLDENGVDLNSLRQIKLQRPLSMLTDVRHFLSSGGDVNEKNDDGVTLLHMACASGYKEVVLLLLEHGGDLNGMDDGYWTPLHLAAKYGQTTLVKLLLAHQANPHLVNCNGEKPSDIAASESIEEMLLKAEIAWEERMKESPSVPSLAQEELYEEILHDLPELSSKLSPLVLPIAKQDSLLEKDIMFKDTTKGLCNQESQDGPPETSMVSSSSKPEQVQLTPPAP
The test is described as follows: SPR.

For test [2], the target named is T2, GST-My16Ank (uncleaved glutathione S-transferase fusion of the myosin 16 ankyrin domain) (Rattus norvegicus, UniProt Q9ERC1-1 1-402).
T2 sequence (looked up): T1 sequence (looked up)
The test is described as follows: SPR. In general terms: In SPR one partner is held on a chip, and binding of the other changes the refractive index at the surface.

B1: recombinant His-tagged PP1cδ (protein phosphatase-1 catalytic subunit, δ isoform) (enzyme, UniProt P62140 1-327, looked up)
chain: MADGELNVDSLITRLLEVRGCRPGKIVQMTEAEVRGLCIKSREIFLSQPILLELEAPLKICGDIHGQYTDLLRLFEYGGFPPEANYLFLGDYVDRGKQSLETICLLLAYKIKYPENFFLLRGNHECASINRIYGFYDECKRRFNIKLWKTFTDCFNCLPIAAIVDEKIFCCHGGLSPDLQSMEQIRRIMRPTDVPDTGLLCDLLWSDPDKDVQGWGENDRGVSFTFGADVVSKFLNRHDLDLICRAHQVVEDGYEFFAKRQLVTLFSAPNYCGEFDNAGGMMSVDETLMCSFQILKPSEKKAKYQYGGLNSGRPVTPPRTANPPKKR
In turn, B1 had a Ka in test [1] of 1.65e+06 M⁻¹. In test [2], this molecule returned a Ka of 3.04e+06 M⁻¹, a Kd of 329 nM, a koff of 0.000473 s⁻¹ and a kon of 1440 M⁻¹ s⁻¹.

By Kd is commonly meant the equilibrium constant for the complex coming apart. The low end stands for tighter binding, the high end for weaker binding. As a reminder, the koff is a measure of how fast the partners let go of each other. Broadly, the kon is the rate constant with which the complex forms. A lower kon goes with slow association.
